Tests used:
MCP-1 receptor B (CCR2B) = target: T1, MCP-1 receptor B (CCR2B) (Homo sapiens, UniProt P41597); assay: hMCP-1 receptor binding assay (125I-MCP-1, CHO-CCR2B cell membranes)
T1 construct: expressed in transfected cells; host or cells: CHO-K1 (clone 7, CHO-CCR2B), stably transfected with pCDNA3/CCR2B; membrane fragments
T1 sequence (P41597 1-360 isoform P41597-2): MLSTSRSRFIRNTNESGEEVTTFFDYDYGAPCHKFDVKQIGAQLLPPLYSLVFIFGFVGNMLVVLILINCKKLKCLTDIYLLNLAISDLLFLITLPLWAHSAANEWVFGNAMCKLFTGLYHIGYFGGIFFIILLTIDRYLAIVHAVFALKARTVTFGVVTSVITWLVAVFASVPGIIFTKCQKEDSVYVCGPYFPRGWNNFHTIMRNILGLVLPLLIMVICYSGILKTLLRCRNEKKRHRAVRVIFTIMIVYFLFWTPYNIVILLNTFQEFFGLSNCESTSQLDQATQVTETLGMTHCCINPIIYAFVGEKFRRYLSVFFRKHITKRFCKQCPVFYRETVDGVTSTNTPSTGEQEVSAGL
Description: The MCP-1 receptor B (CCR2B) cDNA was cloned by PCR from THP-1 cell RNA using suitable oligonucleotide primers based on the published MCP-1 receptor sequences (Charo et al., 1994, Proc. Natl. Acad. Sci. USA, 91, 2752). The resulting PCR products were cloned into vector PCR-II™ (InVitrogen, San Diego, Calif.). Error free CCR2B cDNA was subcloned as a Hind III-Not I fragment into the eukaryotic expression vector pCDNA3 (InVitrogen) to generate pCDNA3/CC-CKR2A and pCDNA3/CCR2B respectively.
Linearised pCDNA3/CCR2B DNA was transfected into CHO-K1 cells by calcium phosphate precipitation (Wigler et al., 1979, Cell, 16, 777). Transfected cells were selected by the addition of Geneticin Sulphate (G418, Gibco BRL) at 1 mg/ml, 24 hours after the cells had been transfected. Preparation of RNA and Northern blotting were carried out as described previously (Needham et al., 1995, Prot. Express. Purific., 6, 134). CHO-K1 clone 7 (CHO-CCR2B) was identified as the highest MCP-1 receptor B expresser.
CHO-CCR2B cells were grown in DMEM supplemented with 10% foetal calf serum, 2 mM glutamine, 1×Non-Essential Amino Acids, 1×Hypoxanthine and Thymidine Supplement and Penicillin-Streptomycin (at 50 μg streptomycin/ml, Gibco BRL). Membrane fragments were prepared using cell lysis/differential centrifugation methods as described previously (Siciliano et al., 1990, J. Biol. Chem., 265, 19658). […]

THP-1 cells [1] = assay: MCP-1 mediated calcium flux in THP-1 cells; type: cell-based, human; conditions: stimulation of THP-1 cells with hMCP-1, FURA-2; read-out: EC50 of rise in [Ca2+]i
Experimental: The human monocytic cell line THP-1 was grown in a synthetic cell culture medium RPMI 1640 supplemented with 10% foetal calf serum, 6 mM glutamine and Penicillin-Streptomycin (at 50 μg streptomycin/ml, Gibco BRL). THP-1 cells were washed in HBSS (lacking Ca^2+ and Mg^2+)+1 mg/ml BSA and resuspended in the same buffer at a density of 3×10^6 cells/ml. The cells were then loaded with […] FURA-2/AM for 30 min at 37° C., washed twice in HBSS, and resuspended at 1×10^6 cells/ml. THP-1 cell suspension (0.9 ml) was added to a 5 ml disposable cuvette containing a magnetic stirrer bar and 2.1 ml of prewarmed (37° C.) HBSS containing 1 mg/ml BSA, 1 mM MgCl2 and 2 mM CaCl2. The cuvette was placed in a fluorescence spectrophotometer (Perkin Elmer, Norwalk, Conn.) and preincubated for 4 min at 37° C. with stirring. Fluorescence was recorded over 70 sec and cells were stimulated by addition of hMCP-1 to the cuvette after 10 sec. [Ca^2+]i was measured by excitation at 340 nm and 380 nm alternately and subsequent measurement of the intensity of the fluorescence emission at 510 nm.
where the Kd for FURA-2 Ca^2+ complex at 37° C. was taken to be 224 nm. […]

THP-1 cells [2] = assay: hMCP-1 mediated chemotaxis; type: cell-based, human; conditions: biphasic response
Experimental: In vitro chemotaxis assays were performed using the human monocytic cell line THP-1. Cell migration through polycarbonate membranes was measured by enumerating those passing through either directly by Coulter counting or indirectly by use of a colourimetric viability assay measuring the cleavage of a tetrazolium salt by the mitochondrial respiratory chain (Scudiero D. A. et al. 1988, Cancer Res., 48, 4827-4833).
Chemoattractants were introduced into a 96-well microtitre plate which forms the lower well of a chemotaxis chamber fitted with a PVP-free 5 μm poresize polycarbonate adhesive framed filter membrane (NeuroProbe MB series, Cabin John, Md. 20818, USA) according to the manufacturer's instructions. […] The plate was incubated at 37° C. for 3 h and the absorbance of the soluble formazan product was read on a microtitre plate reader at 450 nm. The data was input into a spreadsheet, corrected for any random migration in the absence of chemoattractant and the average absorbance values, standard error of the mean, and significance tests were calculated. hMCP-1 induced concentration dependent cell migration with a characteristic biphasic response, maximal […]. […]

IC50 (MCP-1 receptor B (CCR2B); cold competition, 100 pM 125I-labeled MCP-1, CHO-CCR2B membrane fragments): 0.11 nM
Kd (MCP-1 receptor B (CCR2B); equilibrium binding, CHO-CCR2B membrane fragments): 0.12 nM
EC50 (THP-1 cells [1]): ~2 nM
Substance: MCP-1: Human Monocyte Chemoattractant Protein-1, the chemokine ligand of the CCR2 receptor
concentration of maximal cell migration (THP-1 cells [2]): 0.5-1.0 nm

Source: patent US6737435B1, “Indole derivatives and their use as MCP-1 antagonist” (AstraZeneca AB, priority 1999, dated 2004)
